Experimental data as given in PMC8163800, “Extreme parsimony in ATP consumption by 20S complexes in the global disassembly of single SNARE complexes” (Nature Communications, 2021).

Key:
[1] = molecular target: SNARE–αSNAP complex on vesicles (rat | bovine), P60881
[2] = substrate: Nc1ncnc2c1ncn2[C@@H]1O[C@H](COP(=O)(O)OP(=O)(O)OP(=O)(O)O)[C@@H](O)[C@H]1O; experiment: ATPase titration, phosphate release by MESG/PNP (ELIPA kit), Hill fit; type: biochemical, Cricetulus griseus; conditions: Hill coefficient 0.58 ± 0.09, 5 mM MgCl2, 50 mM HEPES pH 7.4, 50 mM NaCl, 37 °C

Row | rate of ATP hydrolysis of WT NSF hexamers with soluble SNARE complex (300 nM) and αSNAP (1 μM) against free NSF [1] [fold] | Binder | K0.5 [2] [µM]
1 | 24 | N-ethylmaleimide sensitive factor (NSF), wild-type hexamer, P18708 1-744 (enzyme) MAGRSMQAARCPTDELSLSNCAVVSEKDYQSGQHVIVRTSPNHKYIFTLRTHPSVVPGSVAFSLPQRKWAGLSIGQEIEVALYSFDKAKQCIGTMTIEIDFLQKKNIDSNPYDTDKMAAEFIQQFNNQAFSVGQQLVFSFNDKLFGLLVKDIEAMDPSILKGEPASGKRQKIEVGLVVGNSQVAFEKAENSSLNLIGKAKTKENRQSIINPDWNFEKMGIGGLDKEFSDIFRRAFASRVFPPEIVEQMGCKHVKGILLYGPPGCGKTLLARQIGKMLNAREPKVVNGPEILNKYVGESEANIRKLFADAEEEQRRLGANSGLHIIIFDEIDAICKQRGSMAGSTGVHDTVVNQLLSKIDGVEQLNNILVIGMTNRPDLIDEALLRPGRLEVKMEIGLPDEKGRLQILHIHTARMRGHQLLSADVDIKELAVETKNFSGAELEGLVRAAQSTAMNRHIKASTKVEVDMEKAESLQVTRGDFLASLENDIKPAFGTNQEDYASYIMNGIIKWGDPVTRVLDDGELLVQQTKNSDRTPLVSVLLEGPPHSGKTALAAKIAEESNFPFIKICSPDKMIGFSETAKCQAMKKIFDDAYKSQLSCVVVDDIERLLDYVPIGPRFSNLVLQALLVLLKKAPPQGRKLLIIGTTSRKDVLQEMEMLNAFSTTIHVPNIATGEQLLEALELLGNFKDKERTTIAQQVKGKKVWIGIKKLLMLIEMSLQMDPEYRVRKFLALLREEGASPLDFD | –
2 | – | free NSF (NSF hexamer) (Cricetulus griseus) (protein, N-terminal His-tag cut by thrombin, pET28a) MAGRSMQAARCPTDELSLSNCAVVSEKDYQSGQHVIVRTSPNHKYIFTLRTHPSVVPGSVAFSLPQRKWAGLSIGQEIEVALYSFDKAKQCIGTMTIEIDFLQKKNIDSNPYDTDKMAAEFIQQFNNQAFSVGQQLVFSFNDKLFGLLVKDIEAMDPSILKGEPASGKRQKIEVGLVVGNSQVAFEKAENSSLNLIGKAKTKENRQSIINPDWNFEKMGIGGLDKEFSDIFRRAFASRVFPPEIVEQMGCKHVKGILLYGPPGCGKTLLARQIGKMLNAREPKVVNGPEILNKYVGESEANIRKLFADAEEEQRRLGANSGLHIIIFDEIDAICKQRGSMAGSTGVHDTVVNQLLSKIDGVEQLNNILVIGMTNRPDLIDEALLRPGRLEVKMEIGLPDEKGRLQILHIHTARMRGHQLLSADVDIKELAVETKNFSGAELEGLVRAAQSTAMNRHIKASTKVEVDMEKAESLQVTRGDFLASLENDIKPAFGTNQEDYASYIMNGIIKWGDPVTRVLDDGELLVQQTKNSDRTPLVSVLLEGPPHSGKTALAAKIAEESNFPFIKICSPDKMIGFSETAKCQAMKKIFDDAYKSQLSCVVVDDIERLLDYVPIGPRFSNLVLQALLVLLKKAPPQGRKLLIIGTTSRKDVLQEMEMLNAFSTTIHVPNIATGEQLLEALELLGNFKDKERTTIAQQVKGKKVWIGIKKLLMLIEMSLQMDPEYRVRKFLALLREEGASPLDFD | 9 ± 2
